Test results reported in patent US20190352664A1, “COMPOSITIONS AND METHODS FOR CONTROLLING GENE EXPRESSION” (priority 2017, published 2019).

B1: AT5G49980.1_1: uORF of AT5G49980.1; peptide SEQ ID NO: 36 (nucleic acid)
DNA: ATGGAGACGAAGTGGAGAGAGAAAGCTCCCACTCTCTCACACCCCAAAGCTTCTTCTTCTTCTTCCTCTTCTTCCTCTTCCTCTTCTCTAATCTGA
modifications: listed as DNA, chemistry not fully specified
B2: AT5G61010.1_3: uORF of AT5G61010.1; peptide SEQ ID NO: 38 (nucleic acid)
DNA: ATGTCAACTGGATTAAGCTTAAGTAGTAATGGTTTTTACTATGTTCATGTGGGGATTTCTCTTCCTCTCTGTTTACTTCATTCCGAGATGACTTGA
modifications: listed as DNA, chemistry not fully specified
B3: AT5G15950.1_1: uORF of AT5G15950.1; peptide SEQ ID NO: 35 (nucleic acid)
DNA: ATGATGGAATCGAAAGCTGGTAATAAGAAGTCAAGCAGCAATAGTTCCTTATGTTACGAAGCACCCCTTGGTTACAGCATTGAAGACGTTCGTCCTTTCGGTGGAATCAAGAAATTCAAATCTTCTGTCTACTCCAACTGCGCTAAGAGGCCTTCCTGA
B4: AT5G11790.1: 5′ UTR of transcript; N-MYC downregulated-like 2 (nucleic acid)
DNA: AAACACAAAAAAACGAAGATAGCCATCGTTTTGGTGAGAGAAGAGAGAAGAGAGAAGAAGAAGGCCATGGAAAGATAATACTCTGCTTTTTTTTTAGAAATATACAGAGGAAATAAAGAGAGAGAGAAGGAG
B5: AT5G61010.1: 5′ UTR of transcript; exocyst subunit exo70 family protein E2 (nucleic acid)
DNA: TCTTTCCCTTCTTCTTCCCCAATAATCTCGCTGAAACTCTCTTGCTCTTGCTTCTAAAAATCTGTTCTTTGAGACTTTGATCACACAGTTATCAAAATCATAATCTCTTCTTTCCTGGTTTTTTTTTTTTTCTTCTTCTTCTTCCCGTTTCACGGTACGTTTACTCTGTTCGATCACCGAGTGTATGATAAAATGTTTCTGTGAAATCAAATAACATATCACTTTCTAATAAACATCAAAATTTCTCCTTTTTTACAGAAACAAGAAGTTTTTTTGGGAAAGCCGTTGACTTGACTTTTTCTTTGGGGTGTTGTGTGGGAGCTTATAGTATGGTACCATAAGTGGGAGCTTATAGTTTGGGGTGTTGTGTGGGAGCTTATAGTATGAGGAAAAATGTTAGATTTGAAGAATGCTTCACTGATTTTTTACCATAAGTATGTCAACTGGATTAAGCTTAAGTAGTAATGGTTTTTACTATGTTCATGTGGGGATTTCTCTTCCTCTCTGTTTACTTCATTCCGAGATGACTTGAGATTTTTTCAAAGTATAGTTCTTGGAGTTAAGCTTACCTAGTAATCACTTTATATAACATCCCTTCGTTTACATTTGTGCTTTCACCTGGAAACACTTTAGACTTTTCTCTCTTCTGCCGTGTGTATTTAGTTGTCTAGTCAAATTTAAGTTGAGTTTAGGCTCTAGTCTTTGGTTTTGGTT
B6: AT4G37925.1: 5′ UTR of transcript; subunit NDH-M of NAD(P)H:plastoquinone dehydrogenase complex (nucleic acid)
DNA: ATGGTTCTGTAACCGGACAACATCTCAAAACTTGTTCTGTTTTTTTTTTTTCATTTCTTAGACAGAAAA
modifications: listed as DNA, chemistry not fully specified
notes: 5′ UTR of transcript; subunit NDH-M of NAD(P)H:plastoquinone dehydrogenase complex
B7: AT5G49980.1: 5′ UTR of transcript; auxin F-box protein 5 (nucleic acid)
DNA: AAAAAATAATCCCCAAATAATGGAGACGAAGTGGAGAGAGAAAGCTCCCACTCTCTCACACCCCAAAGCTTCTTCTTCTTCTTCCTCTTCTTCCTCTTCCTCTTCTCTAATCTGAATCCAAAGCCTCTCTCTTT
B8: AT4G34460.1: 5′ UTR of transcript; GTP binding protein beta 1 (nucleic acid)
DNA: GACCCTCTTCTCTCTCTCTAGCTAGTCTCAGGTCAGAGAAGCCATCATCAACATTCAACAAGAGAGCCGTGTTTGTGTCTTGACTGATTCTTCTCTCAAGCTTTTTTAATCTCTCTCTCTTTTCCCACGTAATTCCCCCAAATCCATTCTTTCTAGGGTTCGATCTCCCTCTCTCAATCATGAACCTTCTTCTCTTCTAGACCCCACAAAGTTTCCCCCTTTTATTTGATCGGCGACGGAGAAGCCTAAGTCTGATCCCGGA
B9: AT4G38950.1: 5′ UTR of transcript; ATP binding microtubule motor family protein (nucleic acid)
DNA: AAGAACAAACAACTACCAAACTTGTAGGCAGTAGCAGGAGGAAGTGGGTGGGATTAACATTGTCATTTCTCTCTCTTTTTCTTTTACAAATCTTTCCGTTTTGTTTTCTTTTGGTTTTCCGGTGAGCACTGTTGTGTTTCCAATTCCGGCACTCTTTAGGGTTCCCTTTCAGAAGAAAACTTCACATTGTTGTTTCTCTCAACCGTGACATCTTGGATTACTACTTCTGACTACTTTCCTTTTTCATGTGCCCCAAAAGATAATAGTTACTTTTTCAAAATCTGGTTTTGTTGTTTGGGTTTGTGTCATTCATTGATAAAGTCACTAATGGAGAAGTACAAAACAATTGCAAAATTTCGAATCTGTGTTGTCATTGCTGAATTCTGTAGTGGATGTTTGCTTGCAGTTTAGAGCTTCGGAGTGCGAAGAGTGAGACACAAGAGGATTCTTTCTGGAACCGCATTATTCCCTTTAGAGGAGGAAGAAGAAGACAACTCACTCACAAGGAAAACAAAGGTTCCTCTGGTTACTCTGAAATATTCAAACCAATGGTGAGCAATTGGTAGCACTTGCTAAAGAAG
B10: AT1G30330.1: 5′ UTR of transcript; auxin response factor 6 (nucleic acid)
DNA: CTTCTTCTTCTGATTCTCATTTCAAATAAGAGAGAGAGAGAGAGAAGTAAGTAAAACTTTAGCAGAGAGAAGAATAAACAAATAATTATAGCACCGTCACGTCGCCGCCGTATTTCGTTACCGGAAAAAAAAAATCATTCTTCAACATAAAAATAAAAACAGTCTCTTTCTTTCTATCTTTGTCTATCTTTGATTATTCTCTGTGTACCCATGTTCTGCAACAGTTGAGCAAGTGCATGCCCCATATCTCTCTGTTTCTCATTTCCCGATCTTTGCATTAATCATATACTTCGCCTGAGATCTCGATTAAGCCAGCTTATAGAAGAAGAAACGGCACCAGCTTCTGTCGTTTTAGTTAGCTCGAGATCTGTGTTTCTTTTTTTCTTGGCTTCTGAGCTTTTGGCGGTGGTGGGTTTTTCTGGAGAAACCCAAACGACTATCAAAGTTTTGTTTTTTACAATTTTAAGTGGGAGTTATGAGTGGGGTGGATTAAGTAAGTTACAAGTATGAAGGAGTTGAAGATTCGAAGAAGCGGTTTTGAAGTCGGCGAGACCAAGATTGCGAGCTTATTTGGCTGATGATTTATTTCAGGGAAGAAGAAATAAATCTGTTTTTTTTAGGGTTTTTAGATTTGGTTGGTGAATGGGTGGGAGGTGGAGGGAAACAGTTAAAAAAGTTATGCTTTTAGTGTCTCTTCTTCATAATTACATTTGGGCATCTTGAAATCTTTGGATCTTTGAAGAAACAAAGTTGTGTTTTTTTTTTTGTTCTTTGTTGTTTGCTTTTTAAGTTAGAATAAAAA
B11: AT1G12580.1: 5′ UTR of transcript; phosphoenolpyruvate carboxylase-related kinase 1 (nucleic acid)
DNA: GAGAGAGGACTGGGTCTGGTCTCTTCGCTGCAACCTATAGCTGTTGTTTGCTCTTCGACGGGATTCTCACTACTCTTTTGCCAAAAAAAAGAGATCGGAGGTTCCGAAGGTGAATGCAGCTTGCGATTTCATAGAAAAGAAGATTCGTTTGCTGGATTAGGCTTATTTGTGTATCATAGCTTTGAGGTTTTAACTGAGATTTATTGATAGTGGAACTTAGGTTTTCGAGAGGTGTGAACAGTTGGGTAT
B12: AT1G59700.1: 5′ UTR of transcript; glutathione S-transferase TAU16 (nucleic acid)
DNA: ATTGTGTGGTGACAAGCAACACATGATATGTCCGTTTAGAAACAGACAAAATAAGAAGAAGAAGAAAGAGTCGTGGAGGATTCTTCATTCTTCCTCATCCTCTTCTTCACCGATTCATTAGAAACCAAATTACAAAAAAAAACGTCTATACACAAAAAAACAA
B13: AT5G15950.1: 5′ UTR of transcript; Adenosylmethionine decarboxylase family protein (nucleic acid)
DNA: ACAATATCACAAACTCGTTTGCTCTTTTCATCATTACTAAATCATAAGCGGCTCTCAAGTTCTTTAGGGTTTCGAGTTTTCTCAATCTCCTACCTGATTAAGGTTAATTTCTTATCTTGGATCAATAACAAGAGAATTATAACTCCGGATTGTAATCAATATTCCTCTACATAAAAAGCGTGAATGAGATTATGATGGAATCGAAAGCTGGTAATAAGAAGTCAAGCAGCAATAGTTCCTTATGTTACGAAGCACCCCTTGGTTACAGCATTGAAGACGTTCGTCCTTTCGGTGGAATCAAGAAATTCAAATCTTCTGTCTACTCCAACTGCGCTAAGAGGCCTTCCTGAGTACTAGCCAGTTCCCTCCATAGCTTTTCAATTACAACAATCTCCTTTTCTCAAAGCTCTGGTTCCCCAAATCCTCTCGTCTTTTGTTTGCCCTCACAACAACAACAACAACGCAGAG
B14: AT5G57460.1: 5′ UTR of transcript (nucleic acid)
DNA: GAAGATCTCATTTCTCTTTCTCCTTTTCTTCTCCGACGATTCTTCTCAGTTCTCAGATCTGATCGATTTCTTCATCAGATGTTTCAATCTAACCATTGAGATTGAATAGTCACCATTAGTAGAAGCTTCGAGATCAATTTCGAATCGGGATC
B15: AT5G14930.1: 5′ UTR of transcript; senescence-associated gene 101 (nucleic acid)
DNA: TATGGACTCTCGTTCTCAGACATTTATTTCTCTCAGTCTTACAATATAAATTTTCATTCTTACCATCCATAATTTTGTATTGTCTTCTCCACAGATCTATTCCAGCTCACGCC
modifications: listed as DNA, chemistry not fully specified

The molecules below were run on Arabidopsis (assay: Ribo-seq and RNA-seq global translatome profiling (translational efficiency TE, mORF/uORF ribo-shift) upon elf18 treatment). Conditions: shift of mORF/uORF ratio, elf18 vs Mock; per uORF.
Type: in vivo
Parameters: key to score (Ribo-shift): Up: ribo-shift up (i.e., increased mORF/uORF ratio); Down: ribo-shift down (i.e., decreased mORF/uORF ratio)

Molecule	score (Ribo-shift)
B1	Down
B2	Down
B3	Down

Same assay, conditions: translational efficiency fold change, elf18 vs Mock; listed as shows 5′ UTR of the transcript

Molecule	score (TE change)
B4	TEdown (389 genes displayed decreased TEfc (|z|≥1.5))
B5	TEdown (389 genes displayed decreased TEfc (|z|≥1.5))
B6	TEup (448 had increased TEfc)
B7	TEdown (389 genes displayed decreased TEfc (|z|≥1.5))
B8	TEdown (389 genes displayed decreased TEfc (|z|≥1.5))
B9	TEdown (389 genes displayed decreased TEfc (|z|≥1.5))
B10	TEdown (389 genes displayed decreased TEfc (|z|≥1.5))
B11	TEup (448 had increased TEfc)
B12	TEdown (389 genes displayed decreased TEfc (|z|≥1.5))
B13	TEdown (389 genes displayed decreased TEfc (|z|≥1.5))
B14	TEup (448 had increased TEfc)
B15	TEdown (389 genes displayed decreased TEfc (|z|≥1.5))
